The source of these data is paper PMC11053944, “FRET Assays for the Identification of C. albicans HSP90-Sba1 and Human HSP90α-p23 Binding Inhibitors” (Pharmaceuticals, 2024).

Assay [1] addresses C. albicans HSP90 (without fluorescent protein) (C. albicans) (UniProt P46598).
Assay [2] shares this target. This is another data set of the same source.

In the case of “C. albicans Aha1 (from UniProt A0A1D8PU72 1-346) (natural protein)”, the HSP90 ATPase activity (ADP-Glo), 2.5 µM HSP90 with 1-20 µM Aha1, 1 mM ATP, 1 h at 30 °C; fold of HSP90 alone in assay [1] stood at 7 fold. This substance also registered an HSP90 ATPase activity (ADP-Glo), 2.5 µM HSP90 with Aha1 (20 µM) and Sba1 (20 µM) together, 1 mM ATP; fold of HSP90 alone in assay [2] of 1.9 fold.
